The test system of data set [1] is long-term reconstituting hematopoietic stem cells. The experiment in a line: HSC cycling and number in vivo following cytotoxic insult with 5-fluorouracil in wild-type and E-selectin KO mice. How it is done:
Adult mice (10-14 week-old) with homologous deletion of the E-selectin gene were administered intravenously a single dose of 5-FU at 150 mg/kg. At days 2 and 6 following 5-FU, mice were injected intraperitoneally BrdU 100 mg/kg followed by a continuous dose of 1 mg/mL in their drinking water at a concentration of 1 mg/mL. 18 hours following the injection of BrdU. Mice were sacrificed, their bone marrow cells collected as described above and stained with the following combination of antibodies: a) biotinylated antibodies against lineage-specific antigens CD3, CD5, B220/CD45R, CD11b, Gr-1/Ly-6C/G, CD41, Ter119 together with streptavidin conjugated to PercP-Cy5.5; b) fluorescein isothiocyanate (FITC) conjugated anti-CD48; c) phycoerythrin (PE) conjugated anti-CD150; d) PECy7 conjugated anti-Sca-1/Ly-6A/E; f) allophycocyanin (APC) conjugated anti-CD117 antibodies. True hematopoietic stem cells with the phenotype Lineage-negative, Sca1-positive, CD117-positive, CD41-negative, CD48-negative, CD150-positive were counted and sorted as described above. Sorted cells were cytospun on glass slides and stained with anti-BrdU antibodies as described above.

Data set [2] deals with hematopoietic stem and progenitor cells. As to the kind of experiment: G-CSF mobilization after 8 rounds of cyclophosphamide chemotherapy in wild-type and E-selectin KO mice. The format is in vivo. The note with it: mice pre-treated with 8 fortnightly rounds of cyclophosphamide 200 mg/kg, 6 weeks rest, then G-CSF; FIG. 8. How it is done: Wild-type and E-selectin KO mice were first administered 8 consecutive rounds of chemotherapy. The chemotherapeutic agent used was the alkylating agent cyclophosphamide administered as a single intraperitoneal injection at 200 mg/kg. Mice were given 8 rounds of cyclophosphamide chemotherapy at fortnightly intervals, then left to recover for 6 weeks before administration of G-CSF (total 1 mg/kg as above) and blood collected 3 days later at HSC mobilization. Blood was analyzed for total leukocyte count, Colony forming cells and phenotypic HSC as described above.

Data set [3] has the same test system. As to the kind of experiment: Mobilization of HSC with recombinant human pegylated G-CSF in wild-type and E-selectin KO mice. The data set is classed as in vivo, C57BL/6 mice. To be noted: 3-day course, total 1 mg/kg s.c. As to the method:
Mobilization was induced in wild-type C57BL/6 mice and in C57BL/6 mice carrying homologous deletion of the E-selectin gene (E-selectin KO mice), using recombinant human G-CSF following a mobilization dosing and protocol similar to that used for human patients.
Adult mice (10- to 14-week old males) were administered recombinant human pegylated G-CSF (granulocyte colony stimulating factor) subcutaneously. Two doses were given 36 hours apart, each at 0.5 mg/kg. The G-CSF used was Neulasta, from Amgen. Neulasta was diluted to 0.1 mg/mL in sterile saline for injection and 100 μL used per injection into 20 g mice. In some experiments, a cohort of ‘control’ mice received saline injections alone.
Blood containing the mobilized HSC, was collected 3 days following the initial G-CSF injection using heparin as anticoagulant (13 units of sodium heparin/mL blood). Four different assays were performed on the blood to determine the extent of HSC mobilization. Some of these assays are surrogate measures of mobilization that are commonly used in the clinical setting; that is they measure associated changes, not HSC content directly. These are total blood leukocyte counts and numbers colony forming cells (CFC) in the blood. The third assay based on phenotypic analysis (expression of a panel of surface markers which define long-term reconstituting HSC), while directly measuring HSC, also detect some progenitor cell populations. Phenotypic enumeration is commonly used to determine HSC mobilization in human patients (a different array of cell-surface markers are used in mice). […]
A) Blood leukocyte counts were measured on a Sysmex KX21 automated haematology analyser (Roche).
B) Colony forming cell assay. […] The number of colony forming cells (CFC) per mL of blood can then been calculated. […]

For `O=c1[nH]cc(F)c(=O)[nH]1` [5FU, 5-fluorouracil], the “HSC numbers per femur, E-selectin-/- versus WT mice” value in data set [1] (day 7 after single dose 150 mg/kg, FIG. 4) came to 5 fold. Further, in data set [1] (days 3 and 7 after single dose 150 mg/kg, BrdU in last 17 hours, FIG. 3), the “BrdU incorporation in hematopoietic stem cells, E-selectin knock-out versus wild-type mice” value was “significantly lower”.

B1: pegylated G-CSF: recombinant human pegylated G-CSF (granulocyte colony stimulating factor), Neulasta from Amgen (protein, UniProt P09919 31-207, looked up)
Granulocyte …: TPLGPASSLPQSFLLKCLEQVRKIQGDGAALQEKLVSECATYKLCHPEELVLLGHSLGIPWAPLSSCPSQALQLAGCLSQLHSGLFLYQGLLQALEGISPELGPTLDTLQLDVADFATTIWQQMEELGMAPALQPTQGAMPAFASAFQRRAGGVLVASHLQSFLEVSYRVLRHLAQP
modifications: PEG (pegfilgrastim)
notes: recombinant human pegylated G-CSF (granulocyte colony stimulating factor), Neulasta from Amgen
As for B1, in data set [2], the “CFC per mL of peripheral blood, E-selectin KO versus wild-type mice” value is 5 fold and the “phenotypic HSC per mL of peripheral blood, E-selectin KO versus wild-type mice” value is on record as 2.5 fold. Further, the “number of phenotypic HSC per mL of mobilized blood, E-selectin KO versus wild-type mice” value in data set [3] (FIG. 7C) came to 2.5 fold. Further, the “number of CFC per mL of mobilized blood, E-selectin KO versus wild-type mice” value in data set [3] (blood collected 3 days after first injection, FIG. 7B) was 2.5 fold. Besides, the “number of functional long-term reconstituting HSC per mL of mobilized blood, E-selectin KO versus wild-type mice” value in data set [3] (competitive long-term reconstitution assay) was determined as 12 fold.

Source of the values: patent US9254322B2, “Compositions comprising E-selectin antagonists and uses therefor” (The University of Queensland, priority 2007, dated 2016).
